A short description of data set [1]: Estimated solubility in water.
In data set [2] the target is T1, trypsin (Bos taurus, UniProt P00760).
T1 sequence (P00760 24-246): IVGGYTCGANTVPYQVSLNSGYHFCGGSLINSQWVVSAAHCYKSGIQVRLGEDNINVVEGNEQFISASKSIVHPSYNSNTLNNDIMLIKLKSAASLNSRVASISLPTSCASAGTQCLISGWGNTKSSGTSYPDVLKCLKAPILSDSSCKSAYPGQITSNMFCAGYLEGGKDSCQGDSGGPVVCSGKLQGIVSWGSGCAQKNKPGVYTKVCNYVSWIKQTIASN
The experiment in a line: Trypsin-catalyzed hydrolysis and condensation of alkoxysilanes. Format: biochemical, bovine. Also on record: purchased Sigma-Aldrich #T4665; host or cells: bovine pancreas.

Data set [3] addresses T1, trypsin. The conditions noted are these: neutral medium (pH 7.0) and toluene.
Data set [4] addresses T1, trypsin. The experiment in a line: Trypsin-catalyzed polycondensation, seven days. Format: biochemical, bovine. Also noted: purchased Sigma-Aldrich #T4665; host or cells: bovine pancreas. As to conditions: 25° C.
Data set [5] addresses T1, trypsin. In words: Standard enzymatic activity assay of inhibited trypsin. Format: biochemical, bovine. Also on record: purchased Sigma-Aldrich #T4665; host or cells: bovine pancreas. The conditions noted are these: excess inhibitor (4:1 BBI, 2:1 PCI to protease mole ratio), pH 7.0, two hours. On the procedure:
Since α-chymotrypsin was inhibited by PCI, the presence of trypsin in α-chymotrypsin was confirmed. […] .
A proteinaceous inhibition study was conducted to investigate the role of the enzymatic active site in the hydrolysis and condensation of trimethylethoxysilane.

The target in data set [6] is T1, trypsin. In words: Proteinaceous inhibition of the trimethylethoxysilane reaction. Type of data set: biochemical, bovine. Also noted: purchased Sigma-Aldrich #T4665; host or cells: bovine pancreas. The conditions noted are these: 25° C., three hours, pH 7.0. On the procedure: A proteinaceous inhibition study was conducted to investigate the role of the enzymatic active site in the hydrolysis and condensation of trimethylethoxysilane. […] .

Another data set concerns the target T2, α-chymotrypsin (Bos taurus, UniProt P00766).
T2 construct: purchased Sigma-Aldrich #C-4129; host or cells: bovine pancreas
In words: Standard enzymatic activity assay of inhibited α-chymotrypsin. Type of data set: biochemical, bovine. The conditions noted are these: excess inhibitor (4:1 BBI to protease mole ratio), pH 7.0, two hours. An excerpt: Since α-chymotrypsin was inhibited by PCI, the presence of trypsin in α-chymotrypsin was confirmed. In addition, condensation was not observed despite the partial inhibition of α-chymotrypsin with BBI.

The nature of data set [7]: Hydrolysis and condensation of trimethylethoxysilane by different sources of trypsin; effect of calcium. Format: biochemical. The conditions noted are these: 20 mM CaCl2, pH 7.0, 25° C., three hours. An excerpt: Although various sources (e.g. mammalian, fish) of trypsin are similar (e.g. tertiary structure), their selectivity and activity may be different. […] . The reaction products were isolated and quantitatively analysed by GC (FIG. 24).
Calcium activation of trypsin induces changes in the tertiary structure of the enzyme. […] . […] The reaction products were isolated and quantitatively analysed by GC (FIG. 25).

Data set [8] in a line: Enzyme-catalyzed condensation study after six days. Format: biochemical. An excerpt: This study was directed to an enzyme screen with […] in order to evaluate the ability of various enzymes to catalyze the formation of a siloxane bond. Based on the similarities of the proteins isolated from the Tethya aurantia marine sponge (silicatein), Cylindrotheca fusiformis diatom (silaffin), and Equisetum telmateia plant (biopolymer extract), a series of lipases and serine-proteases were selected as homologous proteolytic enzymes. […] […]. In this study, control reactions were defined as non-enzymatic reactions. Specifically, experiments conducted in the absence of a protein were defined as negative control reactions. Proteinaceous molecules such as bovine serum albumin and porcine γ-globulins were used to study non-specific protein catalysis.
[…]. […] (˜200 mg/mL).

Data set [9] is described as follows: Protease-catalyzed condensation study after three hours. Type of data set: biochemical. As to conditions: pH 7.0, three hours. On the procedure:
In comparison to control reactions, the ability of the proteases detailed in Table 3 to catalyse siloxane condensation was screened with […]. Comparatively, the original reactions conducted in the enzyme-catalysed condensation study were performed for six days versus three hours in this study.
Prior to reaction, the glass vials were silylated. […].
TLCK inhibits trypsin by alkylating the histidine residue in the catalytic triad.

Data set [10] can be described thus: Temperature and pH studies of the trypsin-catalyzed condensation of trimethylsilanol. Format: biochemical. The protocol:
The effect of temperature on trypsin as well as the enzyme-catalyzed condensation reaction was studied. Prior to reaction, buffered aqueous solutions (pH 7.0) of trypsin were stirred and equilibrated at set temperatures in a thermostated water bath (+/−0.1° C.) for 20 minutes. […] In the thermal denaturation experiments, trypsin was boiled for 20 minutes and three hours in 50 mM Tris-HCl buffered Milli-Q water (pH 7.0), independently, before performing the condensation reaction at 25° C.
. […] Based on the chromatographic data, the enzyme-catalyzed condensation reaction was dependent on the pH. The silanol condensation reaction was optimum at pH 7.0.

≈ marks a conversion by molar mass, not a printed value.

With `CCO[Si](C)(C)C` [trimethylethoxysilane], the solubility in data set [1] was 1000 µg/mL (≈ 8.46 mM). Moreover, at trypsin [2] (4:1 monomer to enzyme weight ratio, 25° C., three hours), the “trypsin-catalyzed hydrolysis and condensation (result in words)” value is “preferentially catalyze the hydrolysis and condensation”. For the same molecule, at trypsin [2] (10° C.), the “relative turnover number of hydrolysis” value was found to be 0.53 s⁻¹. On trypsin [2] (pH 7.0, 25° C., three hours), the “condensed in the presence of trypsin” value came out at 84% and the “hydrolysed in the presence of trypsin” value was 100%.
Regarding `C[Si](C)(C)O[Si](C)(C)C` [hexamethyldisiloxane], the “trypsin-catalyzed hydrolysis of the siloxane bond (reverse reaction)” value at trypsin [3] is given as “not observed to catalyze the hydrolysis of a siloxane bond”.
`CCO[Si](C)(OCC)OCC` [methyltriethoxysilane]: the “trypsin-catalyzed polycondensation (result in words)” value at trypsin [4] is given as “promoted the complete hydrolysis and, subsequent, polycondensation”.

B1: BBI: trypsin-chymotrypsin inhibitor from soybean, 71 amino acids (protein, UniProt P01055 40-110, looked up)
Bowman-Birk type proteinase …: DDESSKPCCDQCACTKSNPPQCRCSDMRLNSCHSACKSCICALSYPAQCFCVDITDFCYEPCKPSEDDKEN
Regarding B1, the inhibition of trypsin with trypsin [5] was determined as 98%. Also, the “decrease of percent hydrolysis of trimethylethoxysilane with inhibited trypsin” value with trypsin [6] stood at 24%. In addition, the “inhibition of α-chymotrypsin” value with α-chymotrypsin is reported as 63%.

B2: PCI: trypsin inhibitor from Glycine max, 181 amino acids (protein, UniProt P01070 25-205, looked up)
Trypsin inhibitor A: DFVLDNEGNPLENGGTYYILSDITAFGGIRAAPTGNERCPLTVVQSRNELDKGIGTIISSPYRIRFIAEGHPLSLKFDSFAVIMLCVGIPTEWSVVEDLPEGPAVKIGENKDAMDGWFRLERVSDDEFNNYKLVFCPQQAEDDKCGDIGISIDHDDGTRRLVVSKNKPLVVQFQKLDKESL
With B2, the inhibition of trypsin with trypsin [5] is recorded as 91%. Also, the “decrease of percent hydrolysis of trimethylethoxysilane with inhibited trypsin” value in the data set with trypsin [6] is 6%.

B3: trypsin: bovine pancreatic trypsin, commercial preparation (protein, UniProt P00760 24-246, looked up)
Serine protease 1: T1 sequence (P00760 24-246)
In the case of B3, the “increase of yield of the condensation of trimethylsilanol with calcium” value in data set [7] is “did not change”. Moreover, the “condensation of trimethylsilanol, Buffered pH 7” value in data set [8] (50 mM Tris-HCl pH 7.0, 25° C.) was “✓ (determined to catalyse the condensation of greater than ten times more trimethylsilanol than the negative control reactions; as well as, greater than three or ten times more trimethylsilanol than the BSA reactions in organic and aqueous media, respectively)”. In addition, the “condensation of trimethylsilanol, Dry Toluene” value in data set [8] (dry toluene, 25° C.) was “✓ (determined to catalyse the condensation of greater than ten times more trimethylsilanol than the negative control reactions; as well as, greater than three or ten times more trimethylsilanol than the BSA reactions in organic and aqueous media, respectively)”. In addition, in data set [8] (water, 25° C.), the “condensation of trimethylsilanol, Water” value was “✓ (determined to catalyse the condensation of greater than ten times more trimethylsilanol than the negative control reactions; as well as, greater than three or ten times more trimethylsilanol than the BSA reactions in organic and aqueous media, respectively)”. Moreover, in data set [8] (wet toluene, 25° C.), the “condensation of trimethylsilanol, Wet Toluene” value was “✓ (determined to catalyse the condensation of greater than ten times more trimethylsilanol than the negative control reactions; as well as, greater than three or ten times more trimethylsilanol than the BSA reactions in organic and aqueous media, respectively)”. For the same molecule, the “condensation of trimethylsilanol (result in words)” value in data set [9] was “preferentially catalyzed the condensation”. In data set [10] (25° C., three hours, pH 4.0 to pH 10.0), the “optimum pH of the silanol condensation reaction” value amounted to 7.0. For the same molecule, in [10] (pH 7.0, three hours), the “optimum temperature of the condensation reaction” value was “approximately 25 °C”.
